Experimental data reported in patent publication US20180258163A1 (Chugai, published 2018).

T1: soluble human FcγRIIb (human, UniProt P31994 43-217, limits assumed)
T1 construct: soluble His-tagged form; also called hFcγRIIb
T1 sequence (looked up): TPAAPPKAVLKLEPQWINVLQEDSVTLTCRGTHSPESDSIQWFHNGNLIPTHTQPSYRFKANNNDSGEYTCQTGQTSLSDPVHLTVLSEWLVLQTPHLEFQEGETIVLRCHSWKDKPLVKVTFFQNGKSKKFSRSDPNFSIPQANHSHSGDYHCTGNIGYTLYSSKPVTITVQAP


molecular target: T1, soluble human FcγRIIb; assay: SPR, Ab-IgE complex over captured hFcγRIIb, pH 7.4, 25C
Description: (§1) Regarding the produced Fc region variant-containing antibodies, binding assays between soluble human FcγRIIb and antigen-antibody complexes were performed using BIACORE T200 (GE Healthcare). Soluble human FcγRIIb (NCBI accession NM_004001.3) was produced in the form of a His-tagged molecule by a method known in the art. An appropriate amount of an anti-His antibody was fixed onto Sensor chip CM5 (GE Healthcare) by the amine coupling method using a His capture kit (GE Healthcare) to capture human FcγRIIb. Next, an antibody-antigen complex and a running buffer (as a reference solution) were injected, and interaction was allowed to take place with the human FcγRIIb captured onto the sensor chip. 20 mM N-(2-Acetamido)-2-aminoethanesulfonic acid, 150 mM NaCl, 1.2 mM CaCl₂, and 0.05% (w/v) Tween 20 at pH 7.4 was used as the running buffer, and the respective buffer was also used to dilute the soluble human FcγRIIb. To regenerate the sensor chip, 10 mM glycine-HCl at pH 1.5 was used. All measurements were carried out at 25° C. Analyses were performed based on binding (RU) calculated from sensorgrams obtained by the measurements, and relative values when the binding amount of Ab1H/Ab1L (original Ab1) was defined as 1.00 are shown. To calculate the parameters, the BIACORE T100 Evaluation Software (GE Healthcare) was used.

Binder | BIACORE fold (relative binding, original Ab1=1.00) [fold]
Ab1H005m/Ab1L (antibody, human IgG1, kappa, name in Kabat numbering, copies: 2 + 2) heavy: not shown light: DIQMTQSPSSVSASVGDRVTITCQASESIYSGLAWYQQKPGQPPKLLIYDHSTLASGVPSRFSGSGSGTEYALTISSLQPEDFATYYCQHADYAHHSDNVFGGGTKVEIKRTVAAPSVFIFPPSDEQLKSGTASVVCLLNNFYPREAKVQWKVDNALQSGNSQESVTEQDSKDSTYSLSSTLTLSKADYEKHKVYACEVTHQGLSSPVTKSFNRGEC | 0.92
Ab1H028/Ab1L (antibody, human IgG1, kappa, name in Kabat numbering, copies: 2 + 2) heavy: not shown light: DIQMTQSPSSVSASVGDRVTITCQASESIYSGLAWYQQKPGQPPKLLIYDHSTLASGVPSRFSGSGSGTEYALTISSLQPEDFATYYCQHADYAHHSDNVFGGGTKVEIKRTVAAPSVFIFPPSDEQLKSGTASVVCLLNNFYPREAKVQWKVDNALQSGNSQESVTEQDSKDSTYSLSSTLTLSKADYEKHKVYACEVTHQGLSSPVTKSFNRGEC | 1.37
Ab1H016/Ab1L (antibody, human IgG1, kappa, name in Kabat numbering, copies: 2 + 2) heavy: not shown light: DIQMTQSPSSVSASVGDRVTITCQASESIYSGLAWYQQKPGQPPKLLIYDHSTLASGVPSRFSGSGSGTEYALTISSLQPEDFATYYCQHADYAHHSDNVFGGGTKVEIKRTVAAPSVFIFPPSDEQLKSGTASVVCLLNNFYPREAKVQWKVDNALQSGNSQESVTEQDSKDSTYSLSSTLTLSKADYEKHKVYACEVTHQGLSSPVTKSFNRGEC | 1.04
Ab1H029/Ab1L (antibody, human IgG1, kappa, name in Kabat numbering, copies: 2 + 2) heavy: not shown light: DIQMTQSPSSVSASVGDRVTITCQASESIYSGLAWYQQKPGQPPKLLIYDHSTLASGVPSRFSGSGSGTEYALTISSLQPEDFATYYCQHADYAHHSDNVFGGGTKVEIKRTVAAPSVFIFPPSDEQLKSGTASVVCLLNNFYPREAKVQWKVDNALQSGNSQESVTEQDSKDSTYSLSSTLTLSKADYEKHKVYACEVTHQGLSSPVTKSFNRGEC | 1.33
Ab1H031m/Ab1L (antibody, human IgG1, kappa, name in Kabat numbering, copies: 2 + 2) heavy: not shown light: DIQMTQSPSSVSASVGDRVTITCQASESIYSGLAWYQQKPGQPPKLLIYDHSTLASGVPSRFSGSGSGTEYALTISSLQPEDFATYYCQHADYAHHSDNVFGGGTKVEIKRTVAAPSVFIFPPSDEQLKSGTASVVCLLNNFYPREAKVQWKVDNALQSGNSQESVTEQDSKDSTYSLSSTLTLSKADYEKHKVYACEVTHQGLSSPVTKSFNRGEC | 0.06
Ab1H013/Ab1L (antibody, human IgG1, kappa, name in Kabat numbering, copies: 2 + 2) heavy: not shown light: DIQMTQSPSSVSASVGDRVTITCQASESIYSGLAWYQQKPGQPPKLLIYDHSTLASGVPSRFSGSGSGTEYALTISSLQPEDFATYYCQHADYAHHSDNVFGGGTKVEIKRTVAAPSVFIFPPSDEQLKSGTASVVCLLNNFYPREAKVQWKVDNALQSGNSQESVTEQDSKDSTYSLSSTLTLSKADYEKHKVYACEVTHQGLSSPVTKSFNRGEC | 1.02
Ab1H027/Ab1L (antibody, human IgG1, kappa, name in Kabat numbering, copies: 2 + 2) heavy: not shown light: DIQMTQSPSSVSASVGDRVTITCQASESIYSGLAWYQQKPGQPPKLLIYDHSTLASGVPSRFSGSGSGTEYALTISSLQPEDFATYYCQHADYAHHSDNVFGGGTKVEIKRTVAAPSVFIFPPSDEQLKSGTASVVCLLNNFYPREAKVQWKVDNALQSGNSQESVTEQDSKDSTYSLSSTLTLSKADYEKHKVYACEVTHQGLSSPVTKSFNRGEC | 1.21
Ab1H035/Ab1L (antibody, human IgG1, kappa, name in Kabat numbering, copies: 2 + 2) heavy: not shown light: DIQMTQSPSSVSASVGDRVTITCQASESIYSGLAWYQQKPGQPPKLLIYDHSTLASGVPSRFSGSGSGTEYALTISSLQPEDFATYYCQHADYAHHSDNVFGGGTKVEIKRTVAAPSVFIFPPSDEQLKSGTASVVCLLNNFYPREAKVQWKVDNALQSGNSQESVTEQDSKDSTYSLSSTLTLSKADYEKHKVYACEVTHQGLSSPVTKSFNRGEC | 1.28
Ab1H039/Ab1L (antibody, human IgG1, kappa, name in Kabat numbering, copies: 2 + 2) heavy: not shown light: DIQMTQSPSSVSASVGDRVTITCQASESIYSGLAWYQQKPGQPPKLLIYDHSTLASGVPSRFSGSGSGTEYALTISSLQPEDFATYYCQHADYAHHSDNVFGGGTKVEIKRTVAAPSVFIFPPSDEQLKSGTASVVCLLNNFYPREAKVQWKVDNALQSGNSQESVTEQDSKDSTYSLSSTLTLSKADYEKHKVYACEVTHQGLSSPVTKSFNRGEC | 1.57
Ab1H014/Ab1L (antibody, human IgG1, kappa, name in Kabat numbering, copies: 2 + 2) heavy: not shown light: DIQMTQSPSSVSASVGDRVTITCQASESIYSGLAWYQQKPGQPPKLLIYDHSTLASGVPSRFSGSGSGTEYALTISSLQPEDFATYYCQHADYAHHSDNVFGGGTKVEIKRTVAAPSVFIFPPSDEQLKSGTASVVCLLNNFYPREAKVQWKVDNALQSGNSQESVTEQDSKDSTYSLSSTLTLSKADYEKHKVYACEVTHQGLSSPVTKSFNRGEC | 0.91
Ab1H041m/Ab1L (antibody, human IgG1, kappa, name in Kabat numbering, copies: 2 + 2) heavy: not shown light: DIQMTQSPSSVSASVGDRVTITCQASESIYSGLAWYQQKPGQPPKLLIYDHSTLASGVPSRFSGSGSGTEYALTISSLQPEDFATYYCQHADYAHHSDNVFGGGTKVEIKRTVAAPSVFIFPPSDEQLKSGTASVVCLLNNFYPREAKVQWKVDNALQSGNSQESVTEQDSKDSTYSLSSTLTLSKADYEKHKVYACEVTHQGLSSPVTKSFNRGEC | 1.52
Ab1H030/Ab1L (antibody, human IgG1, kappa, name in Kabat numbering, copies: 2 + 2) heavy: not shown light: DIQMTQSPSSVSASVGDRVTITCQASESIYSGLAWYQQKPGQPPKLLIYDHSTLASGVPSRFSGSGSGTEYALTISSLQPEDFATYYCQHADYAHHSDNVFGGGTKVEIKRTVAAPSVFIFPPSDEQLKSGTASVVCLLNNFYPREAKVQWKVDNALQSGNSQESVTEQDSKDSTYSLSSTLTLSKADYEKHKVYACEVTHQGLSSPVTKSFNRGEC | 1.27
Ab1H010/Ab1L (antibody, human IgG1, kappa, name in Kabat numbering, copies: 2 + 2) heavy: not shown light: DIQMTQSPSSVSASVGDRVTITCQASESIYSGLAWYQQKPGQPPKLLIYDHSTLASGVPSRFSGSGSGTEYALTISSLQPEDFATYYCQHADYAHHSDNVFGGGTKVEIKRTVAAPSVFIFPPSDEQLKSGTASVVCLLNNFYPREAKVQWKVDNALQSGNSQESVTEQDSKDSTYSLSSTLTLSKADYEKHKVYACEVTHQGLSSPVTKSFNRGEC | 1.05
Ab1H012/Ab1L (antibody, human IgG1, kappa, name in Kabat numbering, copies: 2 + 2) heavy: not shown light: DIQMTQSPSSVSASVGDRVTITCQASESIYSGLAWYQQKPGQPPKLLIYDHSTLASGVPSRFSGSGSGTEYALTISSLQPEDFATYYCQHADYAHHSDNVFGGGTKVEIKRTVAAPSVFIFPPSDEQLKSGTASVVCLLNNFYPREAKVQWKVDNALQSGNSQESVTEQDSKDSTYSLSSTLTLSKADYEKHKVYACEVTHQGLSSPVTKSFNRGEC | 0.96
Ab1H034/Ab1L (antibody, human IgG1, kappa, name in Kabat numbering, copies: 2 + 2) heavy: not shown light: DIQMTQSPSSVSASVGDRVTITCQASESIYSGLAWYQQKPGQPPKLLIYDHSTLASGVPSRFSGSGSGTEYALTISSLQPEDFATYYCQHADYAHHSDNVFGGGTKVEIKRTVAAPSVFIFPPSDEQLKSGTASVVCLLNNFYPREAKVQWKVDNALQSGNSQESVTEQDSKDSTYSLSSTLTLSKADYEKHKVYACEVTHQGLSSPVTKSFNRGEC | 1.21
Ab1H018/Ab1L (antibody, human IgG1, kappa, name in Kabat numbering, copies: 2 + 2) heavy: not shown light: DIQMTQSPSSVSASVGDRVTITCQASESIYSGLAWYQQKPGQPPKLLIYDHSTLASGVPSRFSGSGSGTEYALTISSLQPEDFATYYCQHADYAHHSDNVFGGGTKVEIKRTVAAPSVFIFPPSDEQLKSGTASVVCLLNNFYPREAKVQWKVDNALQSGNSQESVTEQDSKDSTYSLSSTLTLSKADYEKHKVYACEVTHQGLSSPVTKSFNRGEC | -0.01

molecular target: T1, soluble human FcγRIIb; assay: as above; remark: another data set of the same source
Description: as §1

Binder | BIACORE fold (relative binding, original Ab1=1.00) [fold]
Ab1H/Ab1L062 (antibody, human IgG1, kappa, copies: 2 + 2) heavy: not shown light: DIQMTQSPSSVSASVGDRVTITCQASESIYSGLAWYQQKPGQPPKLLIYDHSTLASGVPSRFSGRGSGTEYALTISSLKPEDFATYYCQHADYAHHSDNVFGGGTKVEIKRTVAAPSVFIFPPSDEQLKSGTASVVCLLNNFYPREAKVQWKVDNALQSGNSQESVTEQDSKDSTYSLSSTLTLSKADYEKHKVYACEVTHQGLSSPVTKSFNRGEC | 0.98
Ab1H/Ab1L061 (antibody, human IgG1, kappa, copies: 2 + 2) heavy: not shown light: DIQMTQSPSSVSASVGDRVTITCQASESIYSGLAWYQQKPGKPPKLLIYDHSTLASGVPSRFSGSGSGTEYALTIRSLQPEDFATYYCQHADYAHHSDNVFGGGTKVEIKRTVAAPSVFIFPPSDEQLKSGTASVVCLLNNFYPREAKVQWKVDNALQSGNSQESVTEQDSKDSTYSLSSTLTLSKADYEKHKVYACEVTHQGLSSPVTKSFNRGEC | 1.02
